The target of this assay is T1, NPR-B receptor positive cell line, NIH/3T3 (Mus musculus, UniProt Q6VVW5).
T1 construct: natrieuretic peptide type C receptor B (NPR-B) positive cell line, NIH/3T3 and the negative cell line of HEK293 cells; endogenous in cells; host or cells: NIH/3T3
T1 sequence (Q6VVW5 17-1047): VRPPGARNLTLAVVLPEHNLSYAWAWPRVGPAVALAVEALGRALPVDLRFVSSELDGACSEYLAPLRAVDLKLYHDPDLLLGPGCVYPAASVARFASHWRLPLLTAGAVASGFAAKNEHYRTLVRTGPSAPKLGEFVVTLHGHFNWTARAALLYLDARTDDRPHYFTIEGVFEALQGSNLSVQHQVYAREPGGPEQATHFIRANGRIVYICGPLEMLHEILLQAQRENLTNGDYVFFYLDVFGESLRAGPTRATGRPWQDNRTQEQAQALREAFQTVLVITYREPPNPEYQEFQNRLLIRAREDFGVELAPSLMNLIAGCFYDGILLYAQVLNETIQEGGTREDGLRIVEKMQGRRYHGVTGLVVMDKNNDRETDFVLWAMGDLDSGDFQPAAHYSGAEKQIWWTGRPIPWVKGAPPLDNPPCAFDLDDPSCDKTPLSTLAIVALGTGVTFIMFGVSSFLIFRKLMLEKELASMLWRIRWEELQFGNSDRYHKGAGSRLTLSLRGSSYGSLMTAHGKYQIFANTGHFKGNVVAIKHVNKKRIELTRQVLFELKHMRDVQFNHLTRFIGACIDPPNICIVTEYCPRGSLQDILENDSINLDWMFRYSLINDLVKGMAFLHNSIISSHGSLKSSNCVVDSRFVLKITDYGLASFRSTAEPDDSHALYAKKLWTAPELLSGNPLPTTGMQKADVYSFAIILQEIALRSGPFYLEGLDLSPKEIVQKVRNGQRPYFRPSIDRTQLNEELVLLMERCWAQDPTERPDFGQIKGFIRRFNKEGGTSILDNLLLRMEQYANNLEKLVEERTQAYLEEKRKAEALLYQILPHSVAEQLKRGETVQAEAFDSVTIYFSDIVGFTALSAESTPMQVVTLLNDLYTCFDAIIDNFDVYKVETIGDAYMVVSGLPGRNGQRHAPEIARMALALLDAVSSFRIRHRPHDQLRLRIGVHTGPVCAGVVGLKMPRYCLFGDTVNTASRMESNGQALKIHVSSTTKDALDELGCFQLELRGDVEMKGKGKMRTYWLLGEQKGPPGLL
Put plainly: Stimulation of cGMP production in NPR-B positive cells (cGMP ELISA). It is filed as cell-based. Conditions: FIG. 7A. Here is the method: The biological function of these purified protein was assayed for their stimulation of production of cGMP, using NPR-B receptor positive cell line, NIH/3T3 and NPR-B negative cell line HEK293 cells. The determination of cGMP was assay by ELISA using commercial CNP as standard curves. […] Surface preparation. NBR-B was immobilized at different levels in three flow cells via standard amine coupling, leaving Fc 1 unmodified to serve as a reference. All surface plasmon resonance (SPR) analysis was performed on a BIAcore 3000 system using series CM5 sensor chips. Data processing and analysis were performed using BIAevaluation software. All sensorgrams were double referenced by subtracting the response on a reference flow cell and a blank sample. Human NPR-B (R&D system) was covalently attached to a CM5 chip via amine coupling. A surface density of 6600 RU was used for measurements with natriuretic peptides Sequential injections of CNP (0.5-8 nM) were performed at a flow rate of […] (300 s for each), followed by a dissociation time of 900 s. […] Kinetic parameters were calculated assuming a simple 1:1 (Langmuir) binding. […] Kinetic parameters were calculated assuming a simple 1:1 (Langmuir) binding. […] Kinetic parameters were calculated assuming a simple 1:1 (Langmuir) binding. […] Kinetic parameters were calculated assuming a simple 1:1 (Langmuir) binding. […]
For orientation: An ELISA detects its analyte on a solid surface through an enzyme-linked reagent.

For “AMI088: purified fusion protein Fc1-(G4S)4-CNP36 (IgG1 Fc), SEQ ID NO: 133”, the “cGMP production stimulated by AAV vector encoded CNP or CNP-Fc” value is “highest level of cGMP”.

The values are drawn from patent publication US20250099622A1, “COMPOSITIONS AND METHODS FOR EXPRESSING THERAPEUTICS” (priority 2022, published 2025).
